The values below come from US20240166738A1 (priority 2021, published 2024).

Changes are numbered by the printed parent chain.

B1: TM-18: anti-TMEM106B monoclonal antibody; CDR-H1-3 SEQ ID NO: 5, 52, 95; CDR-L1-3 SEQ ID NO: 135, 174, 199 (antibody, V domains shown)
VH: EVRLQQSGPELVKPGASVKISCKTSGYTFTDYYMNWVKQSHGKSLEWIVNINPNNGDAFYNQKFKGKATLTVDKSSNTAYLDLRSLTSEDSAVYYCAREGQLRLRRVYAMDYWGQGTSVTVSS
VL: DIVLAQSPASLAVSLGQRATISCRASKSVSISVYTYVHWYQQKPGQPPKLLIYLASNLESGVPARFSGSGSGTDFTLNIHPVEEEDAATYYCQHSRELPYTFGGGTKLEIK
B2: TM-3: anti-TMEM106B monoclonal antibody; CDR-H1-3 SEQ ID NO: 4, 37, 80; CDR-L1-3 SEQ ID NO: 122, 162, 186 (antibody, V domains shown)
VH: QVTLKESGPGIVQPSQTLSLTCSFSGFSLNTLGRGVGWIRQPSGKGLEWLAKIWWNDDKFYYPALKSRLTISKDTSKNQIFLKIANVDTADSATYYCARIAGGTGAAYWGQGTTLTVSS
VL: DIVMTQAAFSNPVTLGTSASISCRSSKSLLHSNGITYLYWYLQKPGQSPQLLISQMSSLASGVPDRFSSGGSGTDFTLRISRVEAEDVGVFYCAQNLELPWTFGGGTKLELK
B3: TM-9: anti-TMEM106B monoclonal antibody; CDR-H1-3 SEQ ID NO: 10, 43, 86; CDR-L1-3 SEQ ID NO: 122, 168, 186 (antibody, V domains shown)
VH: EVQLVESGGDLVKPGGSLKLSCVASGFTFSGYGMSWVRQTPDKRLEWVATISSGSFYIYYPDSVKGRLTVSRDNAKNTLYLQMSSLKSEDTAIYYCARQNFYYGCEDYWGQGTTLTVSS
VL: B2 VL with S54Y, S58N, D65N, G70S, F91Y, L111I
B4: TM-60: anti-TMEM106B monoclonal antibody; VH SEQ ID NO: 413, VL SEQ ID NO: 502 (antibody, V domains shown)
VH: QVQLQQSGPELVKPGASVKLSCKASGYTFTSYDINWVKQRPGQGLEWIGWIYPRDGNTQYIEKLKGKATLTVDTSSSTAYMELHSLTSEDSAVYFCARWIFYAMDYWGQGTSVTVSS
VL: DVLMTQTPLSLPVSLGDQASISCRSSQSIVHGNGNTYLEWYLQKPGQSPKLLIYKVSNRFSGVPDRFSGSGSGTDFTLKISRVEAEDLGVYYCFQGSHLPYTFGGGTKLEIK
modifications: Variable Heavy Chain -- TM-48, TM-60; Variable Light Chain -- TM-60
B5: TM-12: anti-TMEM106B monoclonal antibody; CDR-H1-3 SEQ ID NO: 13, 46, 89; CDR-L1-3 SEQ ID NO: 130, 169, 194 (antibody, V domains shown)
VH: EVQLQQSGAELMRPGASVKLSCTASGFNIQDYYMYWVKQRPEQGLEWIGRIDPEDGDAEYAPKFQGKATMTADTSSNTAYLQLSSLTSEDTAVYYCSTRVIYDGYYRTMDCWGQGTSVTVSS
VL: B4 VL with T7I, S28T, G32S, Q43K, Y54D, V56I, L99V
B6: TM-13: anti-TMEM106B monoclonal antibody; CDR-H1-3 SEQ ID NO: 14, 47, 90; CDR-L1-3 SEQ ID NO: 131, 171, 195 (antibody, V domains shown)
VH: QVQLQQSGAELVKPGASVKMSCKASGYTFTTFPIEWMKQSHGKGLEWIGNFHPYNDDTKYNEKFKGKATLTVDKSSSTVYLDLSRLTSDDSAVYYCARYFYGGMDYWGQGTSVTVSS
VL: DIQMTQSPASLSVSVGETVTITCRASENIYSSLGWYQQKQGESPQLLVFAATNLADGVPSRFSGSGSGTQYSLKINSLQSEDFGTYYCQHLWSIPWTFGGGTRLEIK
B7: TM-10: anti-TMEM106B monoclonal antibody; CDR-H1-3 SEQ ID NO: 11, 44, 87; CDR-L1-3 SEQ ID NO: 128, 169, 192 (antibody, V domains shown)
VH: QVQLQQSGAELVKPGASVKISCKGSGYAFSSYWMNWVKQRPGKGLEWIGQIYPGDGDTNYNGKFKGKATLTADKSSTTAYIHLSSLTSEDSAVYFCARWGHYDEAMDDWGQGTSVTVSS
VL: DVVMTQTPLSLPVSLGDQASISCRSSQSLVHSNGKTYLHWYVQKPGQSPKLLIYKISNRFSGVPDRFSGSGSGTDFTLKISRVEAEDLGVYFCSQITHVPWTFGGGTKLESK
B8: TM-61: anti-TMEM106B monoclonal antibody; VH SEQ ID NO: 467, VL SEQ ID NO: 503 (antibody, V domains shown)
VH: QVQLQQSGAELAKPGASVKLSCKASGYTFTNYWMNWVKQRPGQGLEWIGYINPSSDYTKYNQNFKDKATLTADKSSSTAYMQLNSLTYEDSAVYYCTRWGGSRSYWYFDVWGAGTTVTVSS
VL: DIVMTQSPSSLSASAGEKVTMSCKSSQSLLNSGNQKNYLAWYQQKPGQSPKLLIYGASTRESGVPDRFTGSGSGTDFTLTISSVQAEDLAVYYCQNDSNYPFTFGGGTKLEMK
modifications: Variable Heavy Chain -- TM-61; Variable Light Chain -- TM-61
B9: TM-11: anti-TMEM106B monoclonal antibody; CDR-H1-3 SEQ ID NO: 12, 45, 88; CDR-L1-3 SEQ ID NO: 129, 170, 193 (antibody, V domains shown)
VH: QVQLKQSGPGQVQPSQSLSITCTVSGFSLSDYGVHWVRQSPGKGLEWLGVIWNNGNTDYNAAFISRLSINKDNSKSQVFFKMTSLQADDTAIYYCVRSLRPLHFDYWGQGTTVTVSS
VL: DIVMTQSPSSLTMSVGQKVTMHCKSSQSLLNSNNLQNYLAWYQQKPGQSPTLLVYFASIRESGVPDRFIGSGSGTDFTLTISSVQAEDLADYFCQQHYNTPFTFGSGTKLEIR
B10: TM-76: anti-TMEM106B monoclonal antibody; VH SEQ ID NO: 481, VL SEQ ID NO: 516 (antibody, V domains shown)
VH: QVTLKESGPGILQPSQTLSLTCSFSGFSLSTSGMGVSWIRKPSGKGLEWLAHIFWDDDKRYNLFLKSRLTVSKDTSSNQVFLMITSVDTTDTATYYCARMGRQRDYFDYWGQGTSLTVSS
VL: QIILTQSPAIMSASLGEEITLTCSASLSISYVHWYQQKSGASPKLLIYGTSNLASGVPSRFSGSGSGTFYSLTISSVEAEDAADYYCHQWSIYRTFGGGTKLEMK
modifications: Variable Heavy Chain -- TM-76; Variable Light Chain -- TM-76

For one experiment, the target named is GST-TMEM106B (truncated, comprising amino acids 122-210 of SEQ ID NO:1) (Homo sapiens, UniProt Q9NUM4). The experiment is described as follows: Pre-mix epitope binning of anti-TMEM106B antibodies (Carterra / Lake Pharma). In kind it is binding. Set-up: key to epitope bin: Bin 1: competes for binding to the same or overlapping TMEM106B region as the TM1, TM17, TM22, TM26, TM79, and/or TM82 antibodies; Bin 2: competes for binding to the same or overlapping TMEM106B region as the TM3, TM9, TM10, TM11, TM12, TM13, TM18, TM19, TM21, TM24, TM25, TM32, TM35, TM37, TM42, TM45, TM48, TM54, TM59, TM60, TM61, and/or TM76 antibodies; Bin 3: competes for binding to the same or overlapping TMEM106B region as the TM7, TM15, TM83, and/or TM84 antibodies; Bin 4: competes for binding to the same or overlapping TMEM106B region as the TMS, TM28, TM29, TM30, TM63, TM64, TM72, TM78, TM80, TM86, and/or TM88 antibodies; Bin 5: does not bind to a truncated TMEM106B comprising amino acids 122-210 of SEQ ID NO:1. The conditions noted are these: competition for binding to truncated GST-TMEM106B (amino acids 122-210). How it is done: (§1) Monoclonal anti-TMEM106B antibodies were immobilized to a CMD 50M chip (Xantec # SPMXCMD5OM lot# SCCMD50M0416). The running buffer was HBS-EP+ with 1 mg/mL BSA. The GST-TMEM106B (truncated, comprising amino acids 122-210 of SEQ ID NO:1) antigen was prepared at a final concentration of 55 nM (corresponding to 2 μg/mL) and mixed with the competing analyte anti-TMEM106B antibodies at a final concentration of 333 nM (corresponding to 50 μg/mL) or compared to a buffer control. Samples were injected for 5 minutes over the array and regenerated after every cycle with 1 minute of two parts Pierce IgG-Elution buffer (ThermoFisher Cat#21004) and 1 part of 10 mM Glycine, pH 2.0 (Carterra).
Chain of GST-TMEM106B (truncated, comprising amino acids 122-210 of SEQ ID NO:1) (Q9NUM4 122-210): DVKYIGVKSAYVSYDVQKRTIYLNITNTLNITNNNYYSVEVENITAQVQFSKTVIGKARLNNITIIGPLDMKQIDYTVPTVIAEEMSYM
Anti-TMEM106B antibodies sorted into various competing bins and resulting binning profiles. […] Antibodies within Bin 3 or Bin 4 partially block Bin 2 antibodies.
as §1, with “SPMXCMD50M” for “SPMXCMD5OM”, “lmg/ml” for “1 mg/mL”, “(truncated)” for “(truncated, comprising amino acids 122-210 of SEQ ID NO:1)”, “μg/ml)” for “μg/mL)”
On to B1, for which the epitope bin result is on record as “Bin 2”.

Consider B2, for which the epitope bin result is listed as “Bin 2”.

Take B3: the epitope bin entry was “Bin 2”.

For B4, the epitope bin entry is recorded as “Bin 2”.

Consider B5, for which the epitope bin result is “Bin 2”.

On to B6, for which the epitope bin entry is “Bin 2”.

Regarding B7, the epitope bin result is recorded as “Bin 2”.

Turning to B8, the epitope bin entry is “Bin 2”.

Turning to B9, the epitope bin entry is “Bin 2”.

As to B10, the epitope bin result is reported as “Bin 2”.

The experiment is the same for the next values; noted with them: epitope bin number; pre-mix binning on truncated GST-TMEM106B.
On to B1, for which the “Binding Community/Bin” value was found to be 2.

Consider B2, for which the “Binding Community/Bin” value worked out at 2.

As for B3, the “Binding Community/Bin” value was 2.

For the molecule B4, the “Binding Community/Bin” value is recorded as 2.

With B5, the “Binding Community/Bin” value is given as 2.

In the case of B6, the “Binding Community/Bin” value is 2.

B7: the “Binding Community/Bin” value is on record as 2.

Consider B8, for which the “Binding Community/Bin” value is reported as 2.

As to B9, the “Binding Community/Bin” value came to 2.

With B10, the “Binding Community/Bin” value is on record as 2.
